Measurements as given in patent publication US9624482B2, “Thermophilic cellobiohydrolase” (Sandia Corporation, priority 2009, dated 2017).
Entries after “also recorded” stand apart in the source; their conditions may differ. Blank lines part the entries; values can stand above or below the molecule they belong to.

How the values were obtained:
GH5 = GH5 (Caldicellulosiruptor saccharolyticus, UniProt A4XIF7); assay: Product inhibition by cellobiose of pNPC hydrolysis; assay type: biochemical; settings: 5 mM pNPC, optimal condition; read-out: IC50 of cellobiose on CBH activity
Experimental: (§1) To examine the catalytic activity of GH5 in detail, the hydrolysis of nitrophenol from 4-nitrophenyl-β-D-cellobioside (pNPC) and 4-nitrophenyl-β-D-glucopyranoside (pNPG) are measured. Under the optimum reaction condition that is previously found (80° C. and pH 5.5), pNPC was hydrolyzed by both CBM3-GH5 and GH5. […] The product inhibition by cellobiose is examined by adding unlabeled cellobiose into reaction mixtures containing 5 mM of pNPC. The IC50 inhibition constant for cellobiose on the catalytic activity of GH5 is found at c.a. 30 mM. The kinetics of pNPC hydrolysis by CBM3-GH5 and GH5 are compared to see whether the CBM3 domain can influence the catalytic activity of the GH5 domain on a soluble substrate.
(§2) GH5 and CBM3-GH5 (constructs C and E, respectively) are tested to determine the influence of product and ionic strength on CBH activity.

[1] = Hydrolysis of pNPC, kinetics by Eadie-Hofstee plots; assay type: biochemical; settings: 80° C. and pH 5.5
Experimental: as §1

[2] = Hydrolysis of pNPG (β-glucosidase activity); assay type: biochemical; settings: 80° C. and pH 5.5, up to one hour
Experimental: as §1

[3] = Influence of ionic strength (NaCl) on CBH activity; assay type: biochemical; settings: 2.3 M NaCl
Experimental: as §2

[4] = Effect of IL concentration on CBH activity, CMC substrate, DNS; assay type: biochemical; settings: EMIM acetate
Experimental: GH5 and CBM3-GH5 (constructs C and E, respectively) are tested to determine the effect of IL concentration on the CBH activity of GH5. Carboxymethyl cellulose (CMC) is used as the substrate for the enzymatic reaction, and the amount of released products containing reducing ends is measured by DNS. The CBH activity remains fairly highly from 0% to more than 20% EMIM acetate. From 25% EMIM acetate the CBH activity starts to decrease and the CBH activity diminished at about 60% EMIM acetate.

[5] = Enzyme digestion of solid substrates, products by HPAEC; assay type: biochemical; settings: 30 mg substrate, 10 μg protein, 80° C., pH 5.5, 17 hours
Experimental: The effect of CBM3 on the cellobiohydrolase activity on solid substrates by GH5 is tested on Avicel and corn stover. These solid substrates are pretreated with the ionic liquid 1-ethyl-3-methylmidazolium acetate ([C2mim][OAc]). […] Enzyme digestion is performed by mixing 30 mg of substrate and 10 μg of protein in 0.5 mL volume and incubating at 80° C. and pH 5.5 for 17 hours. GH5 and CBM3-GH5 are able to produce more cellobiose and glucose from pre-treated Avicel than untreated Avicel.

[6] = CMCase activity of constructs; assay type: biochemical
Excerpt: (§3) CBH is a modular cellulolytic gene from a hyperthermophilic and anaerobic bacterium Caldicellulosiruptor saccharolyticus (C. Sac), which contains the glycoside hydrolase family 10 (GH10), carbohydrate binding module family 3 (CBM3), and glycoside hydrolase family 5 (GH5) domains in a single open reading frame (ORF). We have expressed, purified, and characterized the function of the recombinant GH5 with and without CBM3 domain. The nucleotide sequence of the ORF is codon-optimized and then synthesized for protein expression in E. coli. The translated products contain c-terminal V5 epitope and His (×6) tags from the pDEST42 vector sequence. The recombinant proteins CBM3-GH5 and GH5 are expressed in BL21(DE3)Star E. coli and purified by affinity (HisTrap FF) and ion-exchange (HiTrap Q) chromatography methods. The average yields are 4 mg and 3 mg per liter, respectively.

[7] = CBH (cellobiohydrolase or exoglucanase) activity of constructs; assay type: biochemical
Excerpt: as §3

[8] = substrate: O=[N+]([O-])c1ccc(O[C@@H]2O[C@H](CO)[C@@H](O[C@@H]3O[C@H](CO)[C@@H](O)[C@H](O)[C@H]3O)[C@H](O)[C@H]2O)cc1; assay: hydrolysis kinetics of 4-nitrophenyl-β-D-cellobioside (pNPC) by CBM3-GH5 (Eadie-Hofstee plots); assay type: biochemical, Caldicellulosiruptor saccharolyticus; settings: other: pNPC, 80° C., pH 5.5, Eadie-Hofstee plot
Excerpt: as §3, §1

[9] = Enzymatic activity on CMC under different pH and temperature, DNS assay; assay type: biochemical
Experimental: To determine the optimum conditions for the enzymatic activity of GH5 on CMC under different pH and temperature ranges was measured by DNS assay. The maximum activity is observed at 80° C. and at pH between 4.7 and 5.5; the optimum conditions of the GH5 activity on CMC is at a higher temperature and at a lower pH than the optimum growth conditions of C. sac (70° C., at neutral pH). In addition, Csac GH5 is also active on 4-nitrophenyl β-D-cellobioside, but not active on 4-nitrophenyl β-D-glucopyranoside (up to 1 hr incubation). Therefore, GH5 is a cellobiohydrolase/exoglucanase that produces cellobiose.

[10] = substrate: O=[N+]([O-])c1ccc(O[C@@H]2O[C@H](CO)[C@@H](O[C@@H]3O[C@H](CO)[C@@H](O)[C@H](O)[C@H]3O)[C@H](O)[C@H]2O)cc1; assay: hydrolysis kinetics of 4-nitrophenyl-β-D-cellobioside (pNPC) by GH5 (Eadie-Hofstee plots); assay type: biochemical, Caldicellulosiruptor saccharolyticus
Excerpt: as §3, §1

[11] = other: 80° C., 50 mM MES, pH 5.5 (general description of the enzyme)
[12] = other: pNPC, 80° C., pH 5.5, Eadie-Hofstee plot

Sequence of GH5 (A4XIF7 entry or part of it): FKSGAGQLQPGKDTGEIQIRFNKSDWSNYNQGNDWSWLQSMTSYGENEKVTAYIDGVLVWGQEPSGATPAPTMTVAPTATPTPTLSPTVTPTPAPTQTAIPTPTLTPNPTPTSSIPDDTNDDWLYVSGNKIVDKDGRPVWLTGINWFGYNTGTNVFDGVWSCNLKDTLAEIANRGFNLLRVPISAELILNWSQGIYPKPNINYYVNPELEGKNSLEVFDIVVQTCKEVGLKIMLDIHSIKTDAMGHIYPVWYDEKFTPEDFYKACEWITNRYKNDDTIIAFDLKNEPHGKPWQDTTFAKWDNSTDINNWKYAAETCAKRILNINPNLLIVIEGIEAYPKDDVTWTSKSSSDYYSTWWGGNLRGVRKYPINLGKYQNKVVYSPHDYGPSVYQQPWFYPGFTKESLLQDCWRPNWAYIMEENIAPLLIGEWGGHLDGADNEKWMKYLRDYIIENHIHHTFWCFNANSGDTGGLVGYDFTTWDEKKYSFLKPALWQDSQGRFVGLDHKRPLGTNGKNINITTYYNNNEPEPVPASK

Molecule: O=C[C@H](O)[C@@H](O)[C@H](O[C@@H]1O[C@H](CO)[C@@H](O)[C@H](O)[C@H]1O)[C@H](O)CO [cellobiose]
IC50 (GH5): ~30 mM

B3: CBH protein: Protein encoded by the YP_001179883 gene of Caldicellulosiruptor saccharolyticus, domains GH10, CBM3, GH5 (SEQ ID NO:2) (protein, listed as Caldicellulosiruptor saccharolyticus)
chain: MKRNLFRIVSRVVLIAFIASISLVGAMSYFPVETQAAPDWSIPSLCESYKDDFMIGVAIPARCLSNDTDKRMVLKHFNSITAENEMKPESLLAGQTSTGLSYRFSTADAFVDFASTNKIGIRGHTLVWHNQTPDWFFKDSNGQRLSKDALLARLKQYIYDVVGRYKGKVYAWDVVNEAIDENQPDSYRRSTWYEICGPEYIEKAFIWAHEADPNAKLFYNDYNTEISKKRDFIYNMVKNLKSKGIPIHGIGMQCHINVNWPSVSEIENSIKLFSSIPGIEIHITELDMSLYNYGSSENYSTPPQDLLQKQSQKYKEIFTMLKKYKNVVKSVTFWGLKDDYSWLRSFYGKNDWPLLFFEDYSAKPAYWAVLEASGVTTSSPTPTPTPTVTVTPTPTPTPTPTVTATPTPTPTPVSTPATGGQIKVLYANKETNSTTNTIRPWLKVVNSGSSSIDLSRVTIRYWYTVDGERAQSAVSDWAQIGASNVTFKFVKLSSSVSGADYYLEIGFKSGAGQLQPGKDTGEIQIRFNKSDWSNYNQGNDWSWLQSMTSYGENEKVTAYIDGVLVWGQEPSGATPAPTMTVAPTATPTPTLSPTVTPTPAPTQTAIPTPTLTPNPTPTSSIPDDTNDDWLYVSGNKIVDKDGRPVWLTGINWFGYNTGTNVFDGVWSCNLKDTLAEIANRGFNLLRVPISAELILNWSQGIYPKPNINYYVNPELEGKNSLEVFDIVVQTCKEVGLKIMLDIHSIKTDAMGHIYPVWYDEKFTPEDFYKACEWITNRYKNDDTIIAFDLKNEPHGKPWQDTTFAKWDNSTDINNWKYAAETCAKRILNINFNLLIVIEGIEAYPKDDVTWTSKSSSDYYSTWWGGNLRGVRKYPINLGKYQNKVVYSPHDYGPSVYQQPWFYPGFTKESLLQDCWRPNWAYIMEENIAPLLIGEWGGHLDGADNEKWMKYLRDYIIENHIHHTFWCFNANSGDTGGLVGYDFTTWDEKKYSFLKPALWQDSQGRFVGLDHKRPLGTNGKNINITTYYNNNEPEPVPASK
Temperature of maximum (optimal) activity [9]: about 80 °C
IL concentration up to which the enzyme is active/tolerant [4]: up to 50%

Continued, in another order:

Activity on pNPG [2]: not hydrolyzed
CBH activity (cellobiohydrolase or exoglucanase) [7]: Yes
B1: Caldicellulosiruptor saccharolyticus (Csac) CBM3-GH5 cellobiohydrolase, construct E (CsacF7-6), amino acids 374-1039 of Csac CBH, SEQ ID NO:4 … (protein)
chain: MGVTTSSPTPTPTPTVTVTPTPTPTPTPTVTATPTPTPTPVSTPATGGQIKVLYANKETNSTTNTIRPWLKVVNSGSSSIDLSRVTIRYWYTVDGERAQSAVSDWAQIGASNVTFKFVKLSSSVSGADYYLEIGFKSGAGQLQPGKDTGEIQIRFNKSDWSNYNQGNDWSWLQSMTSYGENEKVTAYIDGVLVWGQEPSGATPAPTMTVAPTATPTPTLSPTVTPTPAPTQTAIPTPTLTPNPTPTSSIPDDTNDDWLYVSGNKIVDKDGRPVWLTGINWFGYNTGTNVFDGVWSCNLKDTLAEIANRGFNLLRVPISAELILNWSQGIYPKPNINYYVNPELEGKNSLEVFDIVVQTCKEVGLKIMLDIHSIKTDAMGHIYPVWYDEKFTPEDFYKACEWITNRYKNDDTIIAFDLKNEPHGKPWQDTTFAKWDNSTDINNWKYAAETCAKRILNINPNLLIVIEGLEAYPKDDVTWTSKSSSDYVSTWWGGNLRGVRKYPINLGKYQNKVVYSPHDYGPSVYQQPWFYPGFTKELLQDCWRPNWAYLMEENIAPLLIGEWGGHLDGADNEKWMKYLRDYIIENHIHHTFWCFNANSGDTGGLVGYDFTTWDEKKYSFLKPALWQDSQGRFVGLDHKRPLGTNGKNINITTYYNNNEPEPVPASK
notes: C-terminal V5 and His6 tags (pDEST42); E. coli BL21(DE3) Star; purified
Activity on pNPC [1]: hydrolyzed
Residual CBH activity [3]: at least 80%
IL concentration at which CBH activity diminished [4]: about 60%
IL concentration from which CBH activity starts to decrease [4]: 25%
Sugar released from solid substrates [5]: cellobiose is the predominant sugar released; also recorded: produced more cellobiose than GH5
CMCase activity [6]: Yes
Km [8]: 2200 µM
Vmax [8]: 0.71 µmol/min/mg
kcat [8]: 0.767 s⁻¹

CBH activity (cellobiohydrolase or exoglucanase) [7]: Yes
B2: Caldicellulosiruptor saccharolyticus (Csac) GH5 cellobiohydrolase domain, construct C (CsacF7-4), amino acids 507-1039 of Csac CBH, SEQ ID NO:3 … (protein)
chain: MFKSGAGQLQPGKDTGEIQIRFNKSDWSNYNQGNDWSWLQSMTSYGENEKVTAYIDGVLVWGQEPSGATPAPTMTVAPTATPTPTLSPTVTPTPAPTQTAIPTPTLTPNPTPTSSIPDDTNDDWLYVSGNKIVDKDGRPVWLTGINWFGYNTGTNVFDGVWSCNLKDTLAEIANRGFNLLRVPISAELILNWSQGIYPKPNINYYVNPELEGKNSLEVFDIVVQTCKEVGLKIMLDIHSIKTDAMGHIYPVWYDEKFTPEDFYKACEWITNRYKNDDTIIAFDLKNEPHGKPWQDTTFAKWDNSTDINNWKYAAETCAKRILNINPNLLIVIEGLEAYPKDDVTWTSKSSSDYYSTWWGGNLRGVRKYPINLGKYQNKVVYSPHDYGPSVYQQPWFYPGFTKESLLQDCWRPNWAYLMEENIAPLLIGEWGGHLDGADNEKWMKYLRDYIIENHIHHTFWCFNANSGDTGGLVGYDFTTWDEKKYSFLKPALWQDSQGRFVGLDHKRPLGTNGKNINITTYYNNNEPEPVPASK
notes: as for B1
Temperature of maximum (optimal) activity [9]: 80 °C
pH of maximum (optimal) activity [9]: 4.7-5.5
Activity on pNPC [1]: active; also recorded: hydrolyzed
Activity on pNPG [2]: not active; also recorded: not hydrolyzed
IL concentration at which CBH activity diminished [4]: about 60%
IL concentration from which CBH activity starts to decrease [4]: 25%
IL concentration up to which the enzyme is active/tolerant [4]: up to 50%
Sugar released from solid substrates [5]: can produce both cellobiose and glucose; also recorded: cellobiose is the predominant sugar released
CMCase activity [6]: Yes
Km [10, 11]: 2200 µM
Vmax [10, 11]: 0.71 µmol/min/mg
Km [10, 12]: 2400 µM
Vmax [10, 12]: 0.62 µmol/min/mg
kcat [10, 12]: 0.817 s⁻¹
